Article PMC12216677, “Structural dynamics of IDR interactions in human SFPQ and implications for liquid–liquid phase separation” (Acta Crystallographica Section D: Structural Biology, 2025)

Legend:
[1] = target: T1, full-length SFPQ (splicing factor proline- and glutamine-rich) (Homo sapiens), P23246; assay: SEC-SAXS; inline SEC-SAXS co-flow, Superdex 200 5/150, 500 mM KNO3, 20 mM HEPES pH 7.4, 5% glycerol, 1 mM DTT, 25 °C; injected at 4.2 mg/ml (full length) or 5 mg/ml (1–598); details: remark: other sources report otherwise
T1 chain: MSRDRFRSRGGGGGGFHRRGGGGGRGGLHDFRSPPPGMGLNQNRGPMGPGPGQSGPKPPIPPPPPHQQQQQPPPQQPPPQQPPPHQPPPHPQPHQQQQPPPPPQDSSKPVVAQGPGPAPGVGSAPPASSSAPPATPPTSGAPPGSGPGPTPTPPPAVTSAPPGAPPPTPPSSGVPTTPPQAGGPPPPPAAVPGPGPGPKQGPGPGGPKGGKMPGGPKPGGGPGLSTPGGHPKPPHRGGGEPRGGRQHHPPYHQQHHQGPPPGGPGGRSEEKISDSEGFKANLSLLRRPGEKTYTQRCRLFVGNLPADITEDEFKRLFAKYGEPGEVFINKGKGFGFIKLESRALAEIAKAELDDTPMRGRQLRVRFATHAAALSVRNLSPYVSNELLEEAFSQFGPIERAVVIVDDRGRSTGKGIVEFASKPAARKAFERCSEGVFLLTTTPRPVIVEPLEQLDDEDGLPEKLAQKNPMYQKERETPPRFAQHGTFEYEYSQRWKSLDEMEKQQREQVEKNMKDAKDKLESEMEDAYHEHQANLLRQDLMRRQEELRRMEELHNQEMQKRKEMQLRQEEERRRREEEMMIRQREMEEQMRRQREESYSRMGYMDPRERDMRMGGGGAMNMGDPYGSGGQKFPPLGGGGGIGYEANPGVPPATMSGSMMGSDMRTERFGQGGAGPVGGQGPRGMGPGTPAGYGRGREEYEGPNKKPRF

[2] = target: T1, full-length SFPQ (splicing factor …); assay: SANS; static cell, 1:20 hSFPQ:dSFPQ at 0.63 mg/ml, no match-out, 150 mM KCl, 1.5% glycerol, 20 mM HEPES, 1 mM DTT pH 7.4 in H2O; details: remark: other sources report otherwise
[3] = target: the molecule itself; assay: SEC-SAXS; inline SEC-SAXS co-flow, Superdex 200 5/150, 500 mM KNO3, 20 mM HEPES pH 7.4, 5% glycerol, 1 mM DTT, 25 °C; injected at 4.2 mg/ml (full length) or 5 mg/ml (1–598)
[4] = target: the molecule itself; assay: SEC-SAXS; inline SEC-SAXS co-flow, Superdex 200 5/150, low salt: 150 mM KCl, 20 mM HEPES pH 7.4, 5% glycerol, 5 mM MgCl2, 1 mM DTT, 25 °C; injected at 4.91 mg/ml

B1: full-length SFPQ (splicing factor proline- and glutamine-rich), P23246 1-707 (natural protein)
chain: MSRDRFRSRGGGGGGFHRRGGGGGRGGLHDFRSPPPGMGLNQNRGPMGPGPGQSGPKPPIPPPPPHQQQQQPPPQQPPPQQPPPHQPPPHPQPHQQQQPPPPPQDSSKPVVAQGPGPAPGVGSAPPASSSAPPATPPTSGAPPGSGPGPTPTPPPAVTSAPPGAPPPTPPSSGVPTTPPQAGGPPPPPAAVPGPGPGPKQGPGPGGPKGGKMPGGPKPGGGPGLSTPGGHPKPPHRGGGEPRGGRQHHPPYHQQHHQGPPPGGPGGRSEEKISDSEGFKANLSLLRRPGEKTYTQRCRLFVGNLPADITEDEFKRLFAKYGEPGEVFINKGKGFGFIKLESRALAEIAKAELDDTPMRGRQLRVRFATHAAALSVRNLSPYVSNELLEEAFSQFGPIERAVVIVDDRGRSTGKGIVEFASKPAARKAFERCSEGVFLLTTTPRPVIVEPLEQLDDEDGLPEKLAQKNPMYQKERETPPRFAQHGTFEYEYSQRWKSLDEMEKQQREQVEKNMKDAKDKLESEMEDAYHEHQANLLRQDLMRRQEELRRMEELHNQEMQKRKEMQLRQEEERRRREEEMMIRQREMEEQMRRQREESYSRMGYMDPRERDMRMGGGGAMNMGDPYGSGGQKFPPLGGGGGIGYEANPGVPPATMSGSMMGSDMRTERFGQGGAGPVGGQGPRGMGPGTPAGYGRGREEYEGPNKKPRF
For B1, the stoichiometry N [1] was 2 and the stoichiometry N [2] was 2.

B2: SFPQ residues 1–598 (domain or fragment, Homo sapiens, UniProt P23246 1-598, looked up)
chain: MSRDRFRSRGGGGGGFHRRGGGGGRGGLHDFRSPPPGMGLNQNRGPMGPGPGQSGPKPPIPPPPPHQQQQQPPPQQPPPQQPPPHQPPPHPQPHQQQQPPPPPQDSSKPVVAQGPGPAPGVGSAPPASSSAPPATPPTSGAPPGSGPGPTPTPPPAVTSAPPGAPPPTPPSSGVPTTPPQAGGPPPPPAAVPGPGPGPKQGPGPGGPKGGKMPGGPKPGGGPGLSTPGGHPKPPHRGGGEPRGGRQHHPPYHQQHHQGPPPGGPGGRSEEKISDSEGFKANLSLLRRPGEKTYTQRCRLFVGNLPADITEDEFKRLFAKYGEPGEVFINKGKGFGFIKLESRALAEIAKAELDDTPMRGRQLRVRFATHAAALSVRNLSPYVSNELLEEAFSQFGPIERAVVIVDDRGRSTGKGIVEFASKPAARKAFERCSEGVFLLTTTPRPVIVEPLEQLDDEDGLPEKLAQKNPMYQKERETPPRFAQHGTFEYEYSQRWKSLDEMEKQQREQVEKNMKDAKDKLESEMEDAYHEHQANLLRQDLMRRQEELRRMEELHNQEMQKRKEMQLRQEEERRRREEEMMIRQREMEEQMRRQREESYS
notes: The GFP tag was removed with TEV protease; that the His tag left with it is surmised from the second nickel column
With B2 the “stoichiometry N” value [3] was 2 and the “stoichiometry N” value [4] was 2.
